Results reported in patent US20200207859A1 (priority 2017, published 2020).

Experiments:
SUP-B15 (ALL) = experiment: Cell killing assay (cell proliferation, Cell Titer-Glo); type: cell-based; settings: 72 hrs
Description: Cytotoxicity effects of the free drug linkers and conjugates were measured with a cell proliferation assay. A total of 12500 cells in a volume of 25 μl were seeded in a 384-well flat bottom white polystyrene plate on the day of assay. Free drug-linkers and conjugates were formulated at 2× starting concentration (1000 nM for free drug linkers and 100 nM for ADCs) in RPMI medium and filtered through MultiScreen HTS 96-Well Filter Plates (Millipore). Filter sterilized samples were serial diluted (1:3) under sterile conditions and added into treatment wells. Plates were cultured at 37° C. in a CO2 incubator for 72 hrs. For cell viability measurement, 30 μl of Cell Titer-Glo® reagent (Promega Corp.) was added into each well, and plates processed as per product instructions. Relative luminescence was measured on an ENVISION® plate reader (Perkin-Elmer; Waltham, Mass.). Relative luminescence readings were converted to % viability using untreated cells as controls. Data was fitted with non-linear regression analysis, using log(inhibitor) vs. response, variable slope, 4 parameter fit equation using GraphPad Prism. Data was expressed as % relative cell viability vs. dose of free drug-linker or conjugate in nM.

HH T lymphoma cells = experiment: T lymphoma cell line cell killing assay; type: cell-based; settings: 120 hours
Description: (§1) A total of 12500 cells in a volume of 25 μL were seeded in a 384-well flat bottom white polystyrene plate the day before the assay. […] Filter-sterilized compounds were serial diluted in culture medium and 25 μL of the compounds were added into treatment wells in quadruplicates. Plates were cultured at 37° C. in a CO2 incubator for 120 hours. For cell viability measurement, 30 μL of Cell Titer-Glo® reagent (Promega Corp.; Madison, Wis.) was added into each well, and plates were processed per product instructions. Relative luminescence was measured on an ENVISION® plate reader (Perkin-Elmer; Waltham, Mass.). Relative luminescence readings were converted to percent (%) viability using untreated cells as controls. Data was fitted with non-linear regression analysis, using log(inhibitor) vs. response, variable slope, 4-parameter fit equation using GraphPad Prism (GraphPad v 5.00, Software; San Diego, Calif.). Data was expressed as percent (%) relative cell viability (average of the quadruplicates) vs. dose of compounds in units of nanomolar (nM). Cell killing EC50 values and span were calculated by Prism in order to evaluate the potency of each compound on each cell line.

HuT-78 T lymphoma cells = experiment: T lymphoma cell line cell killing assay; type: cell-based; settings: HuT-78, 120 hours
Description: as §1

My-La T lymphoma cells = experiment: T lymphoma cell line cell killing assay; type: cell-based; settings: 120 hours
Description: as §1

[1] = tested on: ARP-1 multiple myeloma cells; experiment: Disseminated ARP-1 multiple myeloma model; type: in vivo, mouse; settings: CB17 SCID mice, ARP-1 i.v., 3 mg/kg q7dx4 IV
Description: Female CB17 SCID (severe combined immunodeficiency) were inoculated with ARP-1 cells via tail vein injection. Prior to tumor cell inoculation, animals were pre-treated with 0.4 mg/mouse Fludarabine and 2 mg/mouse Cyclophosphamide (intraperitoneal injection). Randomization and treatment was initiated 14 days post tumor inoculation. Treatment groups are outlined in Table 4. All test articles were formulated in 10 mM citrate pH 6.0, 10% sucrose and diluted with PBS. Animals were administered with the designated test article four times every 7 days (q7dx4) by intravenous injection. […] Body weights were monitored twice per week. When vehicle control animals reached the study endpoint (euthanized due to large, palpable internal tumors), three animals from the Group 2 and Group 3 were euthanized for necropsy and bone marrow harvest (from tibia and femur) for flow cytometry. The remaining animals in treated groups were monitored for up to 3 months after start of treatment.
Bone marrow cells from mouse femur and tibia were pooled and assessed for CD138 expression using the Alexa Fluor 647 mouse anti-human CD138 clone MI15 (BD Biosciences #562097) according to the manufacturer's protocol. Direct immunofluorescence flow cytometric analysis was performed using an LSRII flow cytometer and FACS Diva Software. Data was analyzed using Flowjo (Tree Star, Inc., Ashland, Oreg.).
Body weight, tissue volume, or tissue weights at study endpoint, were analyzed using a one-way analysis of variance (ANOVA) with Dunnett's multiple comparison test. A probability of less than 5% (p<0.05) was considered as significant.

SU-DHL-6 NHL tumors = experiment: Subcutaneous SU-DHL-6 non-Hodgkin's lymphoma model; type: in vivo, mouse; settings: CB17 SCID mice, s.c. SU-DHL-6, 10 mg/kg q7dx3 IV
Description: Female CB17 SCID mice 9 weeks of age were anesthetized with isoflurane and implanted subcutaneously into the right flank with a 1:1 mixture of SU-DHL-6 cells and matrigel. Randomization, enrollment into treatment groups, and start of treatment was initiated approximately 14 days post implantation. Treatment groups are outlined in Table 6. All test articles were formulated in 10 mM citrate pH 6.0, 9% sucrose and diluted in PBS. Body weight and tumor size were monitored twice per week until mean of control treated tumors were >1000 mm^3 or end of study. Animal body weights included the tumor weight. Percent body weight change (BWC) is calculated relative to weight on the day of treatment. No samples were collected at the end of study.
Tumor size on day 18 post-tumor implantation (last day control animals were on study) was analyzed using a one-way analysis of variance (ANOVA) with Dunnett's multiple comparison test. A probability of less than 5% (p<0.05) was considered as significant.

B1: Conjugate A: anti-CD74 IgG with pAMF at heavy chain EU position 404 conjugated to DBCO-PEG4-maytansine (conjugate)
VH: QVQLVESGGGVVQPGRSLRLSCAASGFNFSDYGMHWVRQAPGKGLEWVAVIWYDGSISYYADSVKGRFTISRDNSKNTLYLQMNSLRAEDTAVYYCARGGTVEHGAVYGTDVWGQGTTVTVSS
VL: DIQMTQSPSSVSASVGDRVTITCRASQGIGSWLAWYQQKPGKAPKLLIYAADRLQSGVPSRFSGSGSGTDFTLTISSLQPEDFATYYCQQYHTYPLTFGGGTKVEIK
modifications: non-natural residues
Cell Killing Activity Span (SUP-B15 (ALL)): 64% | Cell Killing Activity Span (SUP-B15 (ALL); listed as A): 65% | Cell killing Span (HH T lymphoma cells): 77% | EC50 (HH T lymphoma cells): 0.22 nM | cell killing activity (in words) (HH T lymphoma cells): potent cell killing activity | Cell killing Span (HuT-78 T lymphoma cells): 72% | EC50 (HuT-78 T lymphoma cells): 0.59 nM | cell killing activity (in words) (HuT-78 T lymphoma cells): potent cell killing activity | Cell killing Span (My-La T lymphoma cells): 73% | EC50 (My-La T lymphoma cells): 0.54 nM | cell killing activity (in words) (My-La T lymphoma cells): potent cell killing activity | body weight change (BWC) [1]: No meaningful change in body weight | delay of weight gain after first round of treatment [1]: approximately 20 days | human CD138 positive ARP-1 myeloma cells in the bone marrow (femur and tibia) ([1]; flow cytometry): substantially inhibited ARP-1 growth in the bone marrow | kidney and ovary tissue weights ([1]; n=3): comparable tissue weights to untreated age-matched control animals | Average final tumor size on day 18 (SU-DHL-6 NHL tumors): 291 mm^3 | tolerability (effects on animal body weights) (SU-DHL-6 NHL tumors): well tolerated | tumor growth inhibition compared to control (SU-DHL-6 NHL tumors; day 18): ~80%
